Laboratory results as given in PMC9001735, “Insights into the inhibition of type I-F CRISPR-Cas system by a multifunctional anti-CRISPR protein AcrIF24”.
Several values for one entry are separate records, joined by “and”; a condition that tells them apart may be missing. Identical values can stand only once. Each block holds one molecule with its values, some of them ahead of it.

Columns and labels:
[1] = target: crRNA-guided surveillance complex (Csy complex) of the type I-F CRISPR-Cas system from P. aeruginosa (P. aeruginosa) (UniProt Q02ML9); assay: SEC-MALS; mix of AcrIF24 and Csy complex (7.5 mg/mL), AcrIF24:Csy 1:1; Superdex-200 10/300 GL, 20 mM HEPES pH 7.5, 200 mM NaCl
[2] = target: crRNA-guided surveillance complex (Csy complex) of the type I-F CRISPR-Cas system from P. aeruginosa (P. aeruginosa) (UniProt Q02ML9); assay: SEC-MALS; mix of AcrIF24 and Csy complex (7.5 mg/mL), AcrIF24:Csy 1:5; Superdex-200 10/300 GL, 20 mM HEPES pH 7.5, 200 mM NaCl
[3] = target: crRNA-guided surveillance complex (Csy complex) of the type I-F CRISPR-Cas system from P. aeruginosa (P. aeruginosa) (UniProt Q02ML9); assay: SEC-MALS; mix of AcrIF24 and Csy complex (7.5 mg/mL), AcrIF24:Csy 5:1; Superdex-200 10/300 GL, 20 mM HEPES pH 7.5, 200 mM NaCl
[4] = target: crRNA-guided surveillance complex (Csy complex) of the type I-F CRISPR-Cas system from P. aeruginosa (P. aeruginosa) (UniProt Q02ML9); assay: SPR; Biacore 8K, 25 °C; Csy complex immobilised on a CM5 chip (~10,000 RU), AcrIF24 injected; 20 mM HEPES pH 7.5, NaCl, 0.05% Tween-20; 1:1 Langmuir model
[5] = target: AcrIF24 (full-length, wild type) (Pseudomonas aeruginosa prophage); assay: SEC-MALS; Superdex-200 10/300 GL, 20 mM HEPES pH 7.5, 200 mM NaCl; AcrIF24 1.5 mg/mL, AcrIF24ΔMD 15 mg/mL; gel filtration coupled with static light scattering
[6] = target: crRNA-guided surveillance complex (Csy complex) of the type I-F CRISPR-Cas system from P. aeruginosa (P. aeruginosa) (UniProt Q02ML9); assay: SEC-MALS; co-expressed and purified Csy-AcrIF24 complex, 1.5 mg/mL; Superdex-200 10/300 GL, 20 mM HEPES pH 7.5, 200 mM NaCl
[7] = target: AcrIF24 Δmiddle domain (Pseudomonas aeruginosa prophage); assay: SEC-MALS; Superdex-200 10/300 GL, 20 mM HEPES pH 7.5, 200 mM NaCl; AcrIF24 1.5 mg/mL, AcrIF24ΔMD 15 mg/mL; gel filtration coupled with static light scattering
[8] = test system: AcrIF24 (Pseudomonas aeruginosa prophage); assay: EMSA; details: EMSA: 20 mM HEPES pH 7.5, 150 mM NaCl, 5% glycerol, 37 C 30 min, 1 uM DNA (20 nM for Kd), MST: 20 mM HEPES pH 7.5, 150 mM KCl
[9] = target: Csy complex;AcrIF24 (Pseudomonas aeruginosa;Pseudomonas aeruginosa prophage) (UniProt Q02ML9+Q02MM0+Q02MM1+Q02MM2); assay: MST; details: Kd only in figure, EMSA: 20 mM HEPES pH 7.5, 150 mM NaCl, 5% glycerol, 37 C 30 min, 1 uM DNA (20 nM for Kd), MST: 20 mM HEPES pH 7.5, 150 mM KCl
[10] = target: Csy complex;AcrIF9 (Pseudomonas aeruginosa;) (UniProt Q02ML9+Q02MM0+Q02MM1+Q02MM2); assay: MST; details: Kd only in figure, EMSA: 20 mM HEPES pH 7.5, 150 mM NaCl, 5% glycerol, 37 C 30 min, 1 uM DNA (20 nM for Kd), MST: 20 mM HEPES pH 7.5, 150 mM KCl
[11] = test system: AcrIF24ΔMD (Pseudomonas aeruginosa prophage); assay: EMSA; details: EMSA: 20 mM HEPES pH 7.5, 150 mM NaCl, 5% glycerol, 37 C 30 min, 1 uM DNA (20 nM for Kd), MST: 20 mM HEPES pH 7.5, 150 mM KCl
Csy complex = target: T1, Csy complex (Pseudomonas aeruginosa, UniProt Q02ML9;Q02MM0;Q02MM1;Q02MM2 1-434;1-327;1-342;1-187); assay: EMSA; EMSA: 20 mM HEPES pH 7.5, 150 mM NaCl, 5% glycerol, 37 C 30 min, 1 uM DNA (20 nM for Kd); MST: 20 mM HEPES pH 7.5, 150 mM KCl, 5% glycerol; details: protein: recombinant, copies: 1;1;6;1, blunt
T1 sequence 1: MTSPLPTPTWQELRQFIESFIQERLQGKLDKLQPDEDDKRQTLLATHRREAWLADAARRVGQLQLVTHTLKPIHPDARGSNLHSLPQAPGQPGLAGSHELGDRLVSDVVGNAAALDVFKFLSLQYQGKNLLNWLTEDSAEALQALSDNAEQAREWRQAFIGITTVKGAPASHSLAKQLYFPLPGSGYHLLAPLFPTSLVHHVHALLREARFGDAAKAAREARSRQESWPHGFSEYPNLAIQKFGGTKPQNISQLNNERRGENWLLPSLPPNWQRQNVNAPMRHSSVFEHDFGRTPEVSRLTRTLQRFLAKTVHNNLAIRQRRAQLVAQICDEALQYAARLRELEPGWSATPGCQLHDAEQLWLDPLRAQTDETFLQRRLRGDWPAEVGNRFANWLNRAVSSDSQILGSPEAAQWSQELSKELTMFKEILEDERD
T1 sequence 2: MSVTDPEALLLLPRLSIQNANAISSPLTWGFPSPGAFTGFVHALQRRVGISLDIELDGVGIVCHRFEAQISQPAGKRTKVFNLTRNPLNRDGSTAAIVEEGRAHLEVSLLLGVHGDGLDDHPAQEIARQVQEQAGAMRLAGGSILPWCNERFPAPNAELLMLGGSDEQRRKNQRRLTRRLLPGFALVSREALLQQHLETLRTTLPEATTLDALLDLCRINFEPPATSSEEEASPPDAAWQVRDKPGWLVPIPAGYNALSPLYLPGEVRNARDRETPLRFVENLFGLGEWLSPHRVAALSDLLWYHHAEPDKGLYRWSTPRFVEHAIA
T1 sequence 3: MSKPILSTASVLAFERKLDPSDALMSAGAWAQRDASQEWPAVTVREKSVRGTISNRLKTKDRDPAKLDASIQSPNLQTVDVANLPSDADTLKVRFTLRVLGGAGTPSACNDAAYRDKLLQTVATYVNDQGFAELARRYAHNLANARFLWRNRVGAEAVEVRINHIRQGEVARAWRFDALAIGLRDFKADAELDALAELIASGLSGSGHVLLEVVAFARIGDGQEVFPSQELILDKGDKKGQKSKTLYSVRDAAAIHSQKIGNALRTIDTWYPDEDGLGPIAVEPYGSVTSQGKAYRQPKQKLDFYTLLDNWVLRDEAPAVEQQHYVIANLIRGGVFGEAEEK
T1 sequence 4: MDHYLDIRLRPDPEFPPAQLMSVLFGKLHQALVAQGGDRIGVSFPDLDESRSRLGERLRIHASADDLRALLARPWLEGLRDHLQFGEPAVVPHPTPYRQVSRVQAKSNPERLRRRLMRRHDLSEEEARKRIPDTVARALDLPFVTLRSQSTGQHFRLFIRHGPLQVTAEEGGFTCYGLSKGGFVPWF

stoichiometry N (AcrIF24 per Csy complex) [1]: 1
stoichiometry N (AcrIF24 per Csy complex) [2]: 1
stoichiometry N (AcrIF24 per Csy complex) [3]: 2 and 1
Kd [4]: 4.21 nM
koff [4]: 0.00118 s⁻¹
kon [4]: 281000 M⁻¹ s⁻¹
stoichiometry N [5]: 2
Molecule: AcrIF24 (full-length, wild type) (natural protein)

stoichiometry N (AcrIF24 per Csy complex) [6]: 1
Molecule: AcrIF24 co-expressed with the Csy complex (natural protein)

stoichiometry N [7]: 2
Molecule: AcrIF24 Δmiddle domain (domain or fragment)

Molecule: GAGCGACTACGACATGAGCGCGCAGCTAAGACCGCCCGTAGATGCGTCGAGCGT (double strand) [dsDNANS 54 bp]
Kd [8]: 3460 nM

Molecule: GAGCGACTACGACATGAGCGCGCAGCTAAGACCGCCCGTAGATGCGTCGAGCGT [ssDNANS 54 nt]
binding signal (fold weaker than ssDNASP) [9]: 10
binding signal (fold weaker than ssDNASP) [10]: 10

Molecule: GCATAGCTCGATCCGAGCTAGTA (double strand) [IR23-24 WT]
Kd [8]: 20.2 nM
Kd [11]: 49.1 nM

B1: dsDNANS 54 bp (dsDNA)
DNA 1: GAGCGACTACGACATGAGCGCGCAGCTAAGACCGCCCGTAGATGCGTCGAGCGT
DNA 2: ACGCTCGACGCATCTACGGGCGGTCTTAGCTGCGCGCTCATGTCGTAGTCGCTC
binding result (Csy complex; label: 5'-FAM or 3'-FAM): no binding

B2: dsDNASP 54 bp (dsDNA)
DNA 1: GGAAGCCATCCAGGTAGACGCGGACATCAAGCCCGCCGTGAAGGTGCAGCTGCT
DNA 2: AGCAGCTGCACCTTCACGGCGGGCTTGATGTCCGCGTCTACCTGGATGGCTTCC
binding result (Csy complex; label: 5'-FAM or 3'-FAM on target strand, unlabelled in some assays): binds
